Measured values taken from article PMC5389655.

Tests used:
[1] = molecular target: Escherichia coli core RNA polymerase, assembled into synthetic transcription elongation complexes (TECs) (E. coli) (UniProt P0A8V2); assay: native gel or EMSA
[2] = molecular target: Escherichia coli core RNA polymerase, assembled into synthetic transcription elongation complexes (TECs) (E. coli) (UniProt P0A8V2)
[3] = molecular target: Escherichia coli core RNA polymerase, assembled into synthetic transcription elongation complexes (TECs) (E. coli) (UniProt P0A8V2); assay: native gel or EMSA; remark: listed apart in the source
[4] = molecular target: Escherichia coli core RNA polymerase, assembled into synthetic transcription elongation complexes (TECs) (E. coli) (UniProt P0A8V2); assay: […]) at 10 nM, […]

Sequence of UniProt P0A8V2 (P0A8V2 whole entry, looked up, one chain of several): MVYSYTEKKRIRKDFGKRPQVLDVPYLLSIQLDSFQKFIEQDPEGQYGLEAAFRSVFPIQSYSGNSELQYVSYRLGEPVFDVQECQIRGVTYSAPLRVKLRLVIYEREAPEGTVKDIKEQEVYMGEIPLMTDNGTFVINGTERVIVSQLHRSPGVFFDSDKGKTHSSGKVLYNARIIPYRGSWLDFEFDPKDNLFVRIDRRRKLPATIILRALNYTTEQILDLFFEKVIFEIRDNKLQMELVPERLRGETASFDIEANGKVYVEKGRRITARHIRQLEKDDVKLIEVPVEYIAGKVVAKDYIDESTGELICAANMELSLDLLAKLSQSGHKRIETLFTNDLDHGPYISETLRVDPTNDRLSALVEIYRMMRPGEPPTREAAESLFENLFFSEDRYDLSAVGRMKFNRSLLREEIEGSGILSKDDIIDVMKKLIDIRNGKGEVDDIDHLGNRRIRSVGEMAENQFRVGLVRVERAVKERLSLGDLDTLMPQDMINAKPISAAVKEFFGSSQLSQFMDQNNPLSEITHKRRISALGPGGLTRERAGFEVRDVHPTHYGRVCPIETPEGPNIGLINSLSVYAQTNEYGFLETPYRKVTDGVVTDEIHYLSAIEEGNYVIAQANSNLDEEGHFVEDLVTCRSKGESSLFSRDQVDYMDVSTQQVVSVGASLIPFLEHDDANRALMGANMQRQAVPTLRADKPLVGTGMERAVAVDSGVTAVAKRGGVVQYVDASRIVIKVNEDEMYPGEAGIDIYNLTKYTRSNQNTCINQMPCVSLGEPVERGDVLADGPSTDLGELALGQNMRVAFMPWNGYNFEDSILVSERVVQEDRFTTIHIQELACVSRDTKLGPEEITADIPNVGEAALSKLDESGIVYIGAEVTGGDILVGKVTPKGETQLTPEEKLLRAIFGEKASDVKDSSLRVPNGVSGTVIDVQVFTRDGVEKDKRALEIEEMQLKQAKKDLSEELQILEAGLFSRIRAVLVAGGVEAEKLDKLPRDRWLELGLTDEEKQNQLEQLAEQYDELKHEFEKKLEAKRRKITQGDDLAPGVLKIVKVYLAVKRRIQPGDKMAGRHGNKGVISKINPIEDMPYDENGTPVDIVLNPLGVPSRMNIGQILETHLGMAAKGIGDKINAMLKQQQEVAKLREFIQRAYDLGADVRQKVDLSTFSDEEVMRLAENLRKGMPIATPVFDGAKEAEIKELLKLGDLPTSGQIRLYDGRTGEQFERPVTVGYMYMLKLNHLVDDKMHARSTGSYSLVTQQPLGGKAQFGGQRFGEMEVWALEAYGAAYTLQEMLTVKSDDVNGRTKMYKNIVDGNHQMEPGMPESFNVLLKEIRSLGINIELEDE

Escherichia coli σ^38 subunit (stationary phase and stress response σ factor) (from UniProt P13445 1-330) (natural protein)
Kd [1]: > 10000 nM
Kd from pausing efficiency in the transcription assay on the '-TG' TEC variant [2]: 525 nM
Kd [3]: 900 nM
Kd [4]: 330 nM
